Source: patent US20150307599A1 (GARVAN INSTITUTE OF MEDICAL RESEARCH, published 2015)

Experiments:
[1] = target: T1, NPY (mouse NPY, Phoenix) (mouse, C-terminal amide (-NH2)); test: SPR (Biacore 2000), biotinylated MAb on SA chip, peptide in solution
T1 construct: 36-residue whole peptide bought from Phoenix Peptides; also called mNPY; neuropeptide Y
Protocol: (§1) Epitope mapping and determination of the affinity of MAb 5E12-B7 was also performed using a Biacore 2000 unit (GE Healthcare). Briefly, purified MAb 5E12-B7 was biotinylated as described above, except that the biotinylation reaction was performed at a 20:1 molar ratio of biotin:Ig. An SA-Chip (GE Healthcare) was docked into the Biacore 2000 unit and HBS-EP buffer (GE) was allowed to run over all 4 flow channels at 40 μL/min until signal had stabilized. The flow path was then switched to channel 4 only and HBS-EP containing 60 μg/mL biotinylated antibody was injected at 40 μL/min for 5 min to couple MAb 5E12-B7 to the chip via biotin-streptavidin binding. HBS-EP buffer was then run over channel 4 at 40 μL/min for over 30 min to remove all uncoupled Ig from the Biacore system then the flow path was changed to pass through all 4 flow channels. Association and dissociation of the peptides in Table 3 was measured using the Biacore Application Wizard. In each case, a baseline was established by passing HBS-EP over all 4 channels at 40 μL/min for 1 min before association was measure by injection of peptide (diluted to 1, 10, 100 or 1000 nM in HBS-EP) at 40 μL/min for 5 min. Dissociation was measured by allowing HBS-EP to pass over all 4 channels at 40 μL/min for 30 min. The kd, kₐ and KD were determined for each peptide by curve fitting using the BIAevalutation software.
(§2) The affinity of MAb 5E12-B7 to NPY, PYY and PP peptides was measured using a Biacore-2000 (GE-healthcare). Biotinylated MAb was loaded onto a single channel of a streptavidin chip, and dilute samples (1 nM-1 μM) of NPY, mPYY, hPYY, mPP and hPP were then run over all four channels of the chip to obtain blank-subtracted readings for peptide on and off-rates. Using this method, significant and/or detectable binding of MAb 5E12-B7 to NPY, mPYY and hPYY was detected. In contrast, no significant and/or detectable binding to mPP and hPP could be detected.

[2] = target: T2, human PYY (Phoenix) (human, C-terminal amide (-NH2)); test: as above
T2 construct: 36-residue whole peptide; also called hPYY
Protocol: as §1, §2

T2 sequence (peptide, as listed by the source): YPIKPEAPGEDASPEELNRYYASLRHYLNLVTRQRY

B1: MAb 5E12-B7 (antibody, V domains shown)
VH: QVQLQHPGTEVVKPGASVKLSCKASGYTFTNYWMHWVKQRPGQGLEWIGNIDPSNGGTNYNEKFKSKATLTVDKSSSTAYMQLSSLTSEDSAVYYCASFAYWGQGTLVTVSA
VL: DIQMTQSPASLSASVGETVTITCRASGNIHNYLAWYQQKQGKSPQLLVYNAKTLADGVPSRFSGSGSGTQYSLKISSLRPEDFGSYYCQHFWSPPFTFGSGTKLEIK
notes: Biotinylated for the Biacore and Octet assays; also called PYY/NPY antibody (5E12); anti-NPY/PYY antibody 5E12
[1]
  Kd: 9.79 nM
  koff: 0.00142 s⁻¹
  kon: 149000 M⁻¹ s⁻¹
[2]
  Kd: 5.97 nM
  koff: 0.00138 s⁻¹
  kon: 251000 M⁻¹ s⁻¹
